In paper PMC4822818, “An IRF5 Decoy Peptide Reduces Myocardial Inflammation and Fibrosis and Improves Endothelial Cell Function in Tight-Skin Mice” (PLoS ONE, 2016):

Biological target: T1, Recombinant IRF5 (interferon regulatory factor 5), biotin-labeled (UniProt Q13568 1-498, biotin (EZ-Link NHS-PEG4-Biotin, ratio 1:1))
T1 construct: Interferon regulatory factor 5 (IRF5), recombinant; also called B-IRF5; source: made and purified by Top Gene Technologies (Montreal, Quebec, Canada)
T1 sequence (looked up): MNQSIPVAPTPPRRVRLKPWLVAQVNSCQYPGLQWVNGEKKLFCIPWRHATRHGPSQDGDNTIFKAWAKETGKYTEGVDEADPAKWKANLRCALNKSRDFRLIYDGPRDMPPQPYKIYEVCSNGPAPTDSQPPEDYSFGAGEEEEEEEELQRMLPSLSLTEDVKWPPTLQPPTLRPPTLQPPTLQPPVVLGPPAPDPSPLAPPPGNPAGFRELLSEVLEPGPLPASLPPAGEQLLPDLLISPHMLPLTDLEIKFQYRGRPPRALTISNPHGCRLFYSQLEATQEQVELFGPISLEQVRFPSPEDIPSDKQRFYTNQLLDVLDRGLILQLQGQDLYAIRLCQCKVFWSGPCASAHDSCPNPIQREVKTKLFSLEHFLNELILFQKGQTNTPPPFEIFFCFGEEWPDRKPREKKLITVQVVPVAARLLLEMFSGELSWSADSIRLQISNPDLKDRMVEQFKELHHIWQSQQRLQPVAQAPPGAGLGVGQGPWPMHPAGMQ
Assay: BLI; Octet RED; biotin-labeled IRF5 loaded onto streptavidin biosensors in PBS for 15 min; sensors incubated in PBS with increasing concentrations of IRF5D for 10 min; n = 3
Details: both partners purified

In the case of Ac-ELDWDADDIRLQIDNPD-NH2 [IRF5D (Ac-ELDWDADDIRLQIDNPD-NH2), IRF5 decoy peptide], the Kd is reported as 3.72 µM.
